Measured values reported in patent US20210261685A1 (Alector, published 2021).

T1: human MerTK endogenously expressed on cells (SK-MEL-5 cells; human macrophages) (human, UniProt Q12866 21-999)
T1 construct: also called MerTK on SK-MEL-5
T1 sequence: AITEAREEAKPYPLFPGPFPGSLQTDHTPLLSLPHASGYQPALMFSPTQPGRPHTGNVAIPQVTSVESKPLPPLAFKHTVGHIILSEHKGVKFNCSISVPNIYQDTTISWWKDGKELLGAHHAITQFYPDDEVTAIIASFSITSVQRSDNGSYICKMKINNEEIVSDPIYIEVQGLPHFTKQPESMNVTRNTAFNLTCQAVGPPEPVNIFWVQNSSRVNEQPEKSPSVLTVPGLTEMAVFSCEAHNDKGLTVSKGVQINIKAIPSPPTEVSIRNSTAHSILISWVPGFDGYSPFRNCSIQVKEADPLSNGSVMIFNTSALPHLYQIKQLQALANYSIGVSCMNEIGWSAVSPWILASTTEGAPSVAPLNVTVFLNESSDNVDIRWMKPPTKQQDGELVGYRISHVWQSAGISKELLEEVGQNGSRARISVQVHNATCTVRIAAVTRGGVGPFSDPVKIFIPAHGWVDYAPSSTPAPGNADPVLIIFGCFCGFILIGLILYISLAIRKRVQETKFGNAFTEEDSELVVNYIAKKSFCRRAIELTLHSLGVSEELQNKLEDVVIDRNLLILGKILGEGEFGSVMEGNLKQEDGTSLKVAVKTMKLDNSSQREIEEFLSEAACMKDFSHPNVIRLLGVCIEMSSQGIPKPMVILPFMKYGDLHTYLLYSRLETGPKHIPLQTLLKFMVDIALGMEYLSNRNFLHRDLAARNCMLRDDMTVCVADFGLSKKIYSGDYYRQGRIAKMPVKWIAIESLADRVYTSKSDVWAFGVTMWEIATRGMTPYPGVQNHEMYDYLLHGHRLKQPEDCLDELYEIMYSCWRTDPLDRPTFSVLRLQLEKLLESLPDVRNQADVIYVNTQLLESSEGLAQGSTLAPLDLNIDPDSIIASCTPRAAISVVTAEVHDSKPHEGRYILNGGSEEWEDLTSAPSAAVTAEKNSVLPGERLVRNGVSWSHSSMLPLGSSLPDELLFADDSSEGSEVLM

T2: Recombinant human MerTK human Fc Chimera protein (R&D systems, Cat #391-MR-100) (human, UniProt Q12866 26-499, limits assumed)
T2 construct: Bought; also called recombinant human MerTK protein; MerTK-Fc
T2 sequence: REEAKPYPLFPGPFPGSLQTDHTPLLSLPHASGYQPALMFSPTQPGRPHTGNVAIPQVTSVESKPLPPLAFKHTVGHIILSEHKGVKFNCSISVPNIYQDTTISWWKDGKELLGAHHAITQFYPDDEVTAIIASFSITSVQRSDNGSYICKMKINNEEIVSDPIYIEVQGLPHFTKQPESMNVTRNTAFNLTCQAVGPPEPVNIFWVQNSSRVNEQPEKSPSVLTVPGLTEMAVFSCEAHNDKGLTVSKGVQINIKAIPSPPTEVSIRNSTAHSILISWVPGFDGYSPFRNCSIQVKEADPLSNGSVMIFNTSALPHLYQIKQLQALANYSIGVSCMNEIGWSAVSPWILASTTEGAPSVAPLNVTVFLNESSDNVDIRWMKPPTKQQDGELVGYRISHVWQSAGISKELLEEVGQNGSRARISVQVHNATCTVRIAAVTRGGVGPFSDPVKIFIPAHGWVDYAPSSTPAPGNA


Columns and labels:
[1] = molecular target: T1, human MerTK endogenously expressed on …; assay: flow cytometry on SK-MEL-5 cells, Prism fit
Protocol: To determine whether recombinant anti-human MerTK antibodies of the present disclosure bind to human MerTK endogenously expressed on SK-MEL-5 cells and to CHO cells overexpressing mouse MerTK (CHO-muMerTK OE cells), the following experiments were performed. SK-MEL-5 cells and CHO-muMerTK OE cells were plated at 40,000 cells/well. Anti-MerTK antibodies were titrated to a final concentration range of between 66.6 nM to 4 pM and then added to the cells. After 30 min on ice, cells were washed and then stained with APC-conjugated mouse anti-human Kappa antibody (Southern Biotech Cat #9230-11, Birmingham, Ala.) and a viability die (Life Technologies) in the presence of Fc block solution on ice for 30 minutes, and then washed twice with cold FACS buffer (2% FBS in PBS). Cells were fixed with 4% paraformaldehyde in PBS. Stained cells were acquired on a BD FACS Canto II cytometer and the mean fluorescence intensity (MFI) was calculated with FlowJo software and K value was calculated with Prism software. […] A lower Kd value reflects higher binding of antibody to cells.

[2] = molecular target: T2, Recombinant human MerTK human Fc …; assay: competition ELISA, His-ProS on captured MerTK-Fc
Protocol: (§1) Rabbit anti-human IgG polyclonal antibody (Jackson ImmunoResearch, Cat #309-005-008) was captured to a high-protein binding plate at 2 μg/ml 4° C. overnight. After washing with 0.05% Tween20 in PBS three times, 5% BSA in PBS was added for 1 hour. Recombinant human MerTK human Fc Chimera protein (R&D systems, Cat #391-MR-100) was added at 2 μg/ml for 1 hour and the plates were then washed. Anti-MerTK antibodies were titrated to final concentration range of between 66.6 nM to 4 pM and then 40 μl of serially diluted antibody and 40 μl of His tag-conjugated recombinant Gas6 protein (R&D systems, Cat #885-GSB-050) at 3 μg/ml or His tag-conjugated recombinant ProS protein (R&D systems, Cat #9489-PS-100) at 20 μg/ml. After a further incubation for 1 hour, plates were washed and incubated for 1 hour with HRP-conjugated anti-6×His tag antibody (Abcam, Cat #ab1187). Plates were then washed and an HRP substrate (TMB) was used to develop the plates. After sufficient color change was observed, the reaction was stopped by adding 50 μl 2N H₂SO₄ and the OD was measured using a spectrophotometer (BioTek).
(§2) From these experiments, IC50 values [nM] were determined using OD450 values obtained from the dose-response curves analyzed with Prism software. Table 14 and Table 15 show IC50 values determined for anti-MerTK antibody blocking of Gas6 ligand binding and ProS ligand binding to MerTK. […] Dashes indicate lack of significant blocking; “n.a.” indicates data not available.

[3] = molecular target: T2, Recombinant human MerTK human Fc …; assay: competition ELISA, His-Gas6 on captured MerTK-Fc
Protocol: as §1, §2

Kd [1] [nM] | IC50 [2] [nM] | IC50 [3] [nM] | Binder
23.4 | 13.5 | 5.98 | MTK-21 (antibody, human IgG1, V domains shown) VH: QIQLVQSGPELKKPGETVKISCKASGYTFTNFGMTWVRQAPGMDLKWMGWINTYTGEPKYADDFKGRFALSLETSASTAYLQITNFKNEDTATYFCARGGGRLGLRPLDYWGQGTTLTVSS VL: DIQMTQTTSSLSASLGDRVTISCRASQDINNYLNWYQQKPDGTVKLLIYYTSSLHSGVPSRFSGSGSGTDYSLTITNLEQEDIATYFCQQGNTLPWTFGGGTRLEIK
0.59 | 0.579 | 0.74 | MTK-24 (antibody, human IgG1, V domains shown) VH: QVQLQQPGAELVKPGASVKLSCKASGYTFTSYWMHWVKQRPGQGLEWIGMIHPNINTNYNEKFKSKATLTVDISSSTAYMQLSSLTSEDSAVYYCAKRSPYSNYDWYFDVWGTGTTVTVSS VL: DIQMTQSPASLSVSVGETVTITCRASENIYSNLAWYQQKQGKSPQLLVYAATNLADGVPSRFSGSGSGTQYSLKINSLQSEDFGSYYCQHFWGTPLTFGAGTKLELK
0.52 | 2.78 | – | MTK-28 (antibody, human IgG1, V domains shown) VH: QIQLVQSGPELKKPGETVKISCKASGYTFTTYGMSWVKQAPGKGLKWMGWINTYSGVPTYADDFKGRFAFSLETSASTAYLQINTLKNEDTTTYFCARFLRYYYFDYWGQGTTLTVSS VL: QIVLSQSPVILSASPGEKVTMTCRASSSVTYMHWYQQQPGSSPKPWIYATSNLASGVPARFSGSGSGTSYSLTISRVETEDAATYYCHQWSGNPTFGGGTKLEIN
– | – | 1.29 | MTK-31 (antibody, human IgG1, V domains shown) VH: QIQLVQSGPELKKSGETVKISCKASGYTFTSYGMSWVKQAPGKGLKWMGWINTYSGVPTYADDFKGRFAFSLETSASTAYLQINNLKNEDTATYFCASLSYDGSLYHAMDYWGQGTSVTVSS VL: DVSMTQTPLSLPVSLGDQASISSRSSQTIVHSNGNTYLEWYLQKPGQSPKLLIYKVSNRFSGVPDRFSGSGSGTDFTLKISRVEAEDLGVYYCFQGSHVPWTFGGGTKLEIK
0.4 | 2.78 | – | MTK-32 (antibody, human IgG1, V domains shown) VH: QIQLVQSGPELKKPGETVKISCKASGYTFTSYGMSWVHQAPGKGLKWLGWINTYSGVPTYADDFRGRFAFSLDTSVSTASLEINNLQNEDTATYFCAREDNWAWFAYWGQGTLVTVST VL: QIVLSQSPAILSASPGEKVTMTCRATSSVGYMHWYQRKPGSSPKPWIYATSNLASGVPARFSGSGSGTSYSLTISRVEAEDAATYYCQQWSSNPRTFGGGTKLEIK

The next lines start with the binder.

Binder | Kd [1] [nM] | IC50 [2] [nM] | IC50 [3] [nM]
MTK-04 (antibody, human IgG1, V domains shown) VH: QIQLVQSGPELKKPGETVKISCKASGYTFTNYGMNWVKQAPGKGLKCMGWINTYTGEPTYADDFKGRFAFSLETSASTAYLQINNLKNEDMATYFCAKYDNYAWFAYWGQGTLVTVSA VL: QIVLSQSPAFLSASPGEKVTMTCRASSSVSYMHWYLQKPGSSPKPWIYATSNLASGVPVRFSGSGSGTSYSLTISRVEAEDAATYYCQQWSSNPRTFGGGTKLEIR | 0.037 | 12.8 | –
MTK-06 (antibody, human IgG1, V domains shown) VH: QIQLVQSGPELKKPGETVKISCKASGYTFTNYGMNWVKQAPGKGLKWMGWINTNTGEPTYAEEFKGRFAFSLETSASTAYLQINNLKNEDTATYFCARYYNYWYFDVWGAGTTVTVSS VL: QIVLSQSPAILSASPGEKVTMTCRASSSVSYMHWYQQKPGSSPKPWIYATSNLASGVPARFSGSGSGTSYSLTISRVEAEDAATYYCQQWSSKPPTFGGGTKLEIK | 0.005 | 2.17 | –
MTK-10 (antibody, human IgG1, V domains shown) VH: QVTLKESGPGILQPSQTLSLTCSFSGFSLTTSGMGVGWIRQPSGKGLEWLAHIWSDDDKRSNPALKSRLTISQDSSTNQVFLKIASVDTADSATYYCSHLTPVREFAYWGPGTLVTVSE VL: DIQMTQTTSSLSASLGDRVTISCSASQGISNYLNWFQQKPDGTVKLLIYYTSRLHSGVPSRFSGSGSGTDFSLTISNLEPEDIATYYCQQYTKLPYTFGGGTKLEIK | 0.076 | 3.8 | 32.4
MTK-13 (antibody, human IgG1, V domains shown) VH: DVQLQESGPGLVKPSQSLSLTCSVTGYSITSGYYWNWIRQFPGNKLEWMGNIDYDGSNKYNPSLKNRISITRDTSKNHFFLKLNSVTPEDTATYFCARDGGNYRSFAYWGQGTLVTVSA VL: QIVLTQSPPIMSASPGEKVTITCSASSSVSYMYWFQQKPGTSPKLWIYSTFNLASGVPARFSGSGSGTSYSLTISRMEAEDVATYYCQQRSSYPFTFGSGTKLEIK | 0.68 | 3.76 | 18.9
MTK-14 (antibody, human IgG1, V domains shown) VH: QIQLVQSGPELKKPGETVKISCKASGYTFTNYGMNWVKQAPGKDLQWMGWINTYTGEPTYADDFTGRFAFSLETSASTAYLQINNLKNEDTATYFCAKGGHYAWFAYWGQGTLVTVSA VL: QIVLSQSPAILSASPGEKVTMTCRSSSSVSYMHWYQQKPGSSPKPWIYATSNLASGVPGRFSGSGSGTSYSLTISRVEAEDAATYYCQQWGSNPRTFGGGTKLEIK | 0.021 | 7.61 | –
MTK-02 (antibody, human IgG1, V domains shown) VH: QIQLVQSGPELKQPGETVKISCKASGYTFTDYGVNWVKQAPGKGLKWMGWINTYSGEPTYAGDFKGRFAFSLESSASTAFLQINNLKNEDMATYFCARRVRYWYFDVWGAGTSVTVSS VL: QIVLSQSPAILSASPGERVTMTCRANSSVSYMHWYQQKPGSSPKPWIYATSNLASGVPARFSASGSGTSYSLTVSRVEAEDAATYYCQQWGSNPFTFGSGTKLEIK | 0.024 | 3.94 | –
MTK-08 (antibody, human IgG1, V domains shown) VH: QIQLVQSGPELKKPGETVKISCKASGYTFTNYGMNWVKQAPGKGLKWMGWINTYTGEPTYADDFKGRFAFSLETSASTAYLQINNLKNEDTATYFCAREVRYWYFDVWGAGTTVTVSS VL: QIVLSQSPAILSASPGEKVTMTCRATSSVSYMHWFQQKPGSSPKPWIYATSNLASGVPARFSGSGSGTSYSLTISRVEAEDAAAYYCQHWSGNPRTFGGGTKLEIK | 0.079 | 3.8 | –
